# Measurements as given in paper PMC9482650, “Quantitative fragmentomics allow affinity mapping of interactomes” (Nature Communications, 2022).
# T1: DLG3_1, Q92796
# T1 sequence (Q92796 125-227, limits assumed, looked up): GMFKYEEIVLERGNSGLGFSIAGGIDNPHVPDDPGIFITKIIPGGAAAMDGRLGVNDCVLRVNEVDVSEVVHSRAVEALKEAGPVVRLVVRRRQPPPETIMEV
# T2: TX1BP3, O14907
# T2 sequence (O14907 10-122, limits assumed, looked up): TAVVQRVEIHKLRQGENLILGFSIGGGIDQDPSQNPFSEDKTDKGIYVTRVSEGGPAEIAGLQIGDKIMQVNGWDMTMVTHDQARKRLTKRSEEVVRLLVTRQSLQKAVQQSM
# T3: DVL3, Q92997
# T3 sequence (Q92997 244-331, limits assumed, looked up): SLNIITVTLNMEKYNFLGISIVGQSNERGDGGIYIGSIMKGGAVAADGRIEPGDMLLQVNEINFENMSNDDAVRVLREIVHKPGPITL
# T4: LIN7A, O14910
# T4 sequence (O14910 103-200, limits assumed, looked up): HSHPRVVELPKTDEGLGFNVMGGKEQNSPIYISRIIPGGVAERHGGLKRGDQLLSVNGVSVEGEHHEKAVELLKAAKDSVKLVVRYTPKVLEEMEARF
# T5: SHANK1, Q9Y566
# T5 sequence (Q9Y566 658-767, limits assumed, looked up): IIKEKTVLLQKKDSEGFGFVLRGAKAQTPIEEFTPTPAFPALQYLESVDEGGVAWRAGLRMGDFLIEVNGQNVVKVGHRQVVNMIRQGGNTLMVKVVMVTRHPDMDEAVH
# T6: LIN7B, Q9HAP6
# T6 sequence (Q9HAP6 88-185, limits assumed, looked up): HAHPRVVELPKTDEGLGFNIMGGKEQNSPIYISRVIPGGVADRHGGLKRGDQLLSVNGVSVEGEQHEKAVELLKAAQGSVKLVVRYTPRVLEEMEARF
# T7: PTPN13_1, Q12923
# T7 sequence (Q12923 1088-1188, limits assumed, looked up): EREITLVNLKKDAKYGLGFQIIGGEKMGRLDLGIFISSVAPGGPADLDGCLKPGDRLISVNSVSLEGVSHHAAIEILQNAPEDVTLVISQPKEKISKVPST
# T8: PCLO, Q9Y6V0
# T8 sequence (Q9Y6V0 4491-4600, limits assumed, looked up): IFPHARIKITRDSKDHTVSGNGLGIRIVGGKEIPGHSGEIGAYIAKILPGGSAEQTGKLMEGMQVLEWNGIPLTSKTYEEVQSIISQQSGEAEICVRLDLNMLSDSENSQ
# T9: DLG3_3, Q92796
# T9 sequence (Q92796 374-475, limits assumed, looked up): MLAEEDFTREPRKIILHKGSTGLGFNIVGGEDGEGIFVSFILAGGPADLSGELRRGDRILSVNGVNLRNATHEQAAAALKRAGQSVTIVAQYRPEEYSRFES
# T10: MPDZ_12, O75970
# T10 sequence (O75970 1857-1958, limits assumed, looked up): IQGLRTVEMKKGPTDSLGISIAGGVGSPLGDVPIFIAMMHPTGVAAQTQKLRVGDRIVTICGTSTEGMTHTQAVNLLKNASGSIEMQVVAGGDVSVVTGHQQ
# Columns and labels:
# Experiment in all cases: holdup assay
# Parameters in all cases: key: below the threshold = too weak to quantify, mostly under pKd 3.1 to 4
# Details in all cases: plain residues with an end cap or a label only (N-terminal biotin on a linker: ado-ado)
# MAGI2_6, Q86UL8 = biological target: MAGI2_6, Q86UL8
# MAGI2_6, Q86UL8, sequence (Q86UL8 1141-1229): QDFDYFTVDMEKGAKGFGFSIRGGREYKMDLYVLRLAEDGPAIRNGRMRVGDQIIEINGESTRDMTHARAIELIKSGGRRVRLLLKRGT
# ARHGEF12, Q9NZN5-2 = biological target: ARHGEF12, Q9NZN5-2
# ARHGEF12, Q9NZN5-2, sequence (Q9NZN5 other isoform, or with tags, fused parts or gaps): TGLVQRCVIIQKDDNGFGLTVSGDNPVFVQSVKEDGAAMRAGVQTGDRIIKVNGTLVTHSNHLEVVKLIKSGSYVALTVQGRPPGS
# DLG3_1, Q92796 = biological target: T1, DLG3_1, Q92796
# LNX1_1, Q8TBB1 = biological target: LNX1_1, Q8TBB1
# LNX1_1, Q8TBB1, sequence (Q8TBB1 261-371): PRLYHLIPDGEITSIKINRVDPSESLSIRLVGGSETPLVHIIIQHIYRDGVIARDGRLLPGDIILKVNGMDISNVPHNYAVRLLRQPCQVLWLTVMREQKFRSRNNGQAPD
# GRID2IP_1, A4D2P6 = biological target: GRID2IP_1, A4D2P6
# GRID2IP_1, A4D2P6, sequence (A4D2P6 1-87): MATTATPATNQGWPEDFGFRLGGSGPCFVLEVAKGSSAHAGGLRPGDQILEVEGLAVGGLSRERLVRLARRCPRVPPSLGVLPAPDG
# TX1BP3, O14907 = biological target: T2, TX1BP3, O14907
# DVL3, Q92997 = biological target: T3, DVL3, Q92997
# NHERF4_4, Q86UT5 = biological target: NHERF4_4, Q86UT5
# NHERF4_4, Q86UT5, sequence (Q86UT5 464-550): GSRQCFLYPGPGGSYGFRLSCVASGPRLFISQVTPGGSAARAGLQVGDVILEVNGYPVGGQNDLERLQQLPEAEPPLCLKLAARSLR
# GRASP, Q7Z6J2 = biological target: GRASP, Q7Z6J2
# GRASP, Q7Z6J2, sequence (Q7Z6J2 96-193): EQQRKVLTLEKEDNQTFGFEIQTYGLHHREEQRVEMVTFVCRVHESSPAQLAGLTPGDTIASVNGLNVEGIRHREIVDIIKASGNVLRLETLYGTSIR
# LIN7A, O14910 = biological target: T4, LIN7A, O14910
# DLG5_1, Q8TDM6 = biological target: DLG5_1, Q8TDM6
# DLG5_1, Q8TDM6, sequence (Q8TDM6 617-713): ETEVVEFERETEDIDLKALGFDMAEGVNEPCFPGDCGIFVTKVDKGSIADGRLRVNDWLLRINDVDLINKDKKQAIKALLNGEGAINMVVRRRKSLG
# DLG1_2, Q12959 = biological target: DLG1_2, Q12959
# DLG1_2, Q12959, sequence (Q12959 314-412): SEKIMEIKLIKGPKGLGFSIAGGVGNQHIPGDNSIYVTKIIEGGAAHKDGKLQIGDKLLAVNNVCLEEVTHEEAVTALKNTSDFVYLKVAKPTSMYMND
# SHANK1, Q9Y566 = biological target: T5, SHANK1, Q9Y566
# FRMPD2_1, Q68DX3 = biological target: FRMPD2_1, Q68DX3
# FRMPD2_1, Q68DX3, sequence (Q68DX3 770-861): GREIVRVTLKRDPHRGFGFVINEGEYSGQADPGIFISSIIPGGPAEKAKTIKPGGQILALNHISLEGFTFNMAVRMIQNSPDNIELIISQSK
# GOPC, Q9HD26 = biological target: GOPC, Q9HD26
# LIN7B, Q9HAP6 = biological target: T6, LIN7B, Q9HAP6
# Inadl_9, Q8NI35 = biological target: Inadl_9, Q8NI35
# Inadl_9, Q8NI35, sequence (Q8NI35 1530-1615): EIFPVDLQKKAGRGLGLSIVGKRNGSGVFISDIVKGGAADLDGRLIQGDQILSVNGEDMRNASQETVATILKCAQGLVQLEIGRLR
# MAGI2_2, Q86UL8 = biological target: MAGI2_2, Q86UL8
# MAGI2_2, Q86UL8, sequence (Q86UL8 410-522): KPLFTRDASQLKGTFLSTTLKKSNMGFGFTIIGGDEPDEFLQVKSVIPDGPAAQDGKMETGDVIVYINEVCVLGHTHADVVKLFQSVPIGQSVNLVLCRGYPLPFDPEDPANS
# PTPN13_1, Q12923 = biological target: T7, PTPN13_1, Q12923
# Inadl_5, Q8NI35 = biological target: Inadl_5, Q8NI35
# Inadl_5, Q8NI35, sequence (Q8NI35 673-780): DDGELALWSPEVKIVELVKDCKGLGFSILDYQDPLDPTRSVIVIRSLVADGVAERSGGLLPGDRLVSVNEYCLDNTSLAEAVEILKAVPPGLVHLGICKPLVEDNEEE
# MAST2, Q6P0Q8 = biological target: MAST2, Q6P0Q8
# MAST2, Q6P0Q8, sequence (Q6P0Q8 1099-1202): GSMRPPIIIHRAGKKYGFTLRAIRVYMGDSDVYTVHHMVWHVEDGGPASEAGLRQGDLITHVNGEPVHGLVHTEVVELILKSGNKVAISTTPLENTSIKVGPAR
# PCLO, Q9Y6V0 = biological target: T8, PCLO, Q9Y6V0
# DLG3_3, Q92796 = biological target: T9, DLG3_3, Q92796
# NHERF2_2, Q15599 = biological target: NHERF2_2, Q15599
# NHERF2_2, Q15599, sequence (Q15599 142-238): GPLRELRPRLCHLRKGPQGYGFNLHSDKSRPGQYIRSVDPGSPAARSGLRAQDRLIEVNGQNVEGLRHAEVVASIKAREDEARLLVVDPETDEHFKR
# GORASP2, Q9H8Y8 = biological target: GORASP2, Q9H8Y8
# Inadl_1, Q8NI35 = biological target: Inadl_1, Q8NI35
# Inadl_1, Q8NI35, sequence (Q8NI35 113-229): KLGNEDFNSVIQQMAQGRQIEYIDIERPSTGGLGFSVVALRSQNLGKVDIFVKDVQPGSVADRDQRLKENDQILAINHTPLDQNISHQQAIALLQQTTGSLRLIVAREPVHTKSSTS
# Inadl_10, Q8NI35 = biological target: Inadl_10, Q8NI35
# Inadl_10, Q8NI35, sequence (Q8NI35 1673-1763): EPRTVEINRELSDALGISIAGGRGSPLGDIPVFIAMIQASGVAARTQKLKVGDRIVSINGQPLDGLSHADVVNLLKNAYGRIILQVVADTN
# MPDZ_12, O75970 = biological target: T10, MPDZ_12, O75970
Binder,"pKd (MAGI2_6, Q86UL8)","pKd (ARHGEF12, Q9NZN5-2)","pKd (DLG3_1, Q92796)","pKd (LNX1_1, Q8TBB1)","pKd (GRID2IP_1, A4D2P6)","pKd (TX1BP3, O14907)","pKd (DVL3, Q92997)","pKd (NHERF4_4, Q86UT5)","pKd (GRASP, Q7Z6J2)","pKd (LIN7A, O14910)","pKd (DLG5_1, Q8TDM6)","pKd (DLG1_2, Q12959)","pKd (SHANK1, Q9Y566)","pKd (FRMPD2_1, Q68DX3)","pKd (GOPC, Q9HD26)","pKd (LIN7B, Q9HAP6)","pKd (Inadl_9, Q8NI35)","pKd (MAGI2_2, Q86UL8)","pKd (PTPN13_1, Q12923)","pKd (Inadl_5, Q8NI35)",further results
"DSEEELPTRL [GRK6, P43250]",below the threshold,3.57,below the threshold,3.82,below the threshold,below the threshold,below the threshold,below the threshold,4.16,below the threshold,below the threshold,below the threshold,4.71,below the threshold,3.83,below the threshold,3.69,3.54,below the threshold,below the threshold,"pKd (MAST2, Q6P0Q8): 4.83; pKd (PCLO, Q9Y6V0): below the threshold; pKd (DLG3_3, Q92796): below the threshold; pKd (NHERF2_2, Q15599): 4.51; pKd (GORASP2, Q9H8Y8): below the threshold; pKd (Inadl_1, Q8NI35): below the threshold; pKd (Inadl_10, Q8NI35): below the threshold; pKd (MPDZ_12, O75970): 3.47"
"QKASRNESTF [POLR1D, P0DPB6]",below the threshold,below the threshold,below the threshold,3.52,below the threshold,below the threshold,below the threshold,3.81,below the threshold,below the threshold,below the threshold,3.64,below the threshold,below the threshold,below the threshold,3.96,below the threshold,below the threshold,below the threshold,below the threshold,"pKd (MAST2, Q6P0Q8): 4.95; pKd (PCLO, Q9Y6V0): below the threshold; pKd (DLG3_3, Q92796): 3.6; pKd (NHERF2_2, Q15599): 3.7; pKd (GORASP2, Q9H8Y8): below the threshold; pKd (Inadl_1, Q8NI35): below the threshold; pKd (Inadl_10, Q8NI35): below the threshold; pKd (MPDZ_12, O75970): below the threshold"
"RDYTQSSSSL [GRM5, P41594]",3.49,4.28,below the threshold,below the threshold,below the threshold,3.53,below the threshold,below the threshold,4.33,below the threshold,below the threshold,below the threshold,4.7,below the threshold,3.55,3.52,below the threshold,below the threshold,below the threshold,below the threshold,"pKd (MAST2, Q6P0Q8): 5.15; pKd (PCLO, Q9Y6V0): below the threshold; pKd (DLG3_3, Q92796): below the threshold; pKd (NHERF2_2, Q15599): 4.52; pKd (GORASP2, Q9H8Y8): below the threshold; pKd (Inadl_1, Q8NI35): below the threshold; pKd (Inadl_10, Q8NI35): below the threshold; pKd (MPDZ_12, O75970): below the threshold"
"KPDKQEEFYA [SDC3, O75056]",below the threshold,below the threshold,below the threshold,below the threshold,below the threshold,below the threshold,below the threshold,below the threshold,below the threshold,below the threshold,below the threshold,below the threshold,below the threshold,below the threshold,below the threshold,3.78,below the threshold,below the threshold,below the threshold,below the threshold,"pKd (MAST2, Q6P0Q8): 4.17; pKd (PCLO, Q9Y6V0): below the threshold; pKd (DLG3_3, Q92796): below the threshold; pKd (NHERF2_2, Q15599): below the threshold; pKd (GORASP2, Q9H8Y8): below the threshold; pKd (Inadl_1, Q8NI35): below the threshold; pKd (Inadl_10, Q8NI35): below the threshold; pKd (MPDZ_12, O75970): 3.73"
